Reference: patent US20240261374A1, “PHARMACEUTICAL COMPOSITION AND KIT COMPRISING AN IMMUNOMODULATORY SUBSTANCE FOR TREATING DISEASES” (ellennbe GmbH, priority 2021, published 2024)

B1: IL-4: recombinant human IL-4 produced in Escherichia coli, R&D Systems catalogue number 204-IL/CF; SEQ ID NO: 3 (protein, listed as Homo sapiens)
chain: METGLYLETHRSERGLNLELEPRPRLEPHEPHELELEALACYSALAGLYASNPHEVALHISGLYHISLYSCYSASPILETHRLEGLNGLILEILELYSTHRLEASNSERLETHRGLGLNLYSTHRLECYSTHRGLLETHRVALTHRASPILEPHEALAALASERLYSASNTHRTHRGLLYSGLTHRPHECYSARGALAALATHRVALLEARGGLNPHETYRSERHISHISGLLYSASPTHRARGCYSLEGLYALATHRALAGLNGLNPHEHISARGHISLYSGLNLEILEARGPHELELYSARGLEASPARGASNLETRPGLYLEALAGLYLEASNSERCYSPRVALLYSGLALAASNGLNSERTHRLEGLASNPHELEGLARGLELYSTHRILEMETARGGLLYSTYRSERLYSCYSSERSER
modifications: human IL-4, Interleukin 4
B2: Cimzia®: biologic, certolizumab pegol (antibody, chains of the INN, looked up, V domains shown)
VH: EVQLVESGGGLVQPGGSLRLSCAASGYVFTDYGMNWVRQAPGKGLEWMGWINTYIGEPIYADSVKGRFTFSLDTSKSTAYLQMNSLRAEDTAVYYCARGYRSYAMDYWGQGTLVTVSS
VL: DIQMTQSPSSLSASVGDRVTITCKASQNVGTNVAWYQQKPGKAPKALIYSASFLYSGVPYRFSGSGSGTDFTLTISSLQPEDFATYYCQQYNIYPLTFGQGTKVEIK
modifications: Fab' PEG (pegol)
B3: BDNF: recombinant human BDNF produced in Escherichia coli, R&D Systems catalogue number 248-BDB/CF; SEQ ID NO: 4 (protein, listed as Homo sapiens)
chain: HSDPARRGELSVCDSISEWVTAADKKTAVDMSGGTVTVLEKVPVSKGQLKQYFYETKCNPMGYTKEGCRGIDKRHWNSQCRTTQSYVRALTMDSKKRIGWRFIRIDTSCVCTLTIKRGR
modifications: human BDNF, human brain-derived neurotrophic factor

Tests used:
[1] = test system: patient suffering from multiple sclerosis; assay: treatment of a patient: SHILD-score, relapses, fatigue; format: in vivo, human; details: for subject's condition in multiple sclerosis: as indicated by the SHILD-score; for SHILD-score: multiple sclerosis
[2] = test system: ankylosing spondylitis (Bechterew's disease); format: in vivo, human; details: Patient 11; ended more than a year before; lost their effect within half a year
[3] = as can be seen from the examples

Row | Molecule | fatigue in case of multiple sclerosis [1, 3] | relapses in case of multiple sclerosis [1, 3] | subject's condition in multiple sclerosis [1] | SHILD-score [1] | Effect of earlier treatment with biologics (patient history) [2]
1 | B1 | reduction | avoiding | stabilization or even improvement | decreasing | 
2 | B2 |  |  |  |  | had little effect from the outset
3 | B3 | very effectively relieving |  | stabilized or even improved | decreasing | 
